The values that follow come from patent publication WO2011161970A1 (dated 2011).

Where a chain is given by its changes, count along the chain named.

Assay [1] deals with T1, human PDGFRα-Fc fusion protein (PDGFRα extracellular region [1-514 amino acids] and mouse IgG2a constant … (human; mouse, UniProt P16234 24-514).
T1 construct: not shown: mouse IgG2a constant region
In words: EIA, PDGFRα-Fc immobilised on plate, serially diluted COS-1 culture supernatant.

Assay [2] concerns the target T1, human PDGFRα-Fc fusion protein (PDGFRα …). In words: EIA, PDGFRα-Fc immobilised on plate, serially diluted COS-1 culture supernatant, anti-human IgG constant region HRP detection.

T1 sequence (P16234 24-514 limits assumed): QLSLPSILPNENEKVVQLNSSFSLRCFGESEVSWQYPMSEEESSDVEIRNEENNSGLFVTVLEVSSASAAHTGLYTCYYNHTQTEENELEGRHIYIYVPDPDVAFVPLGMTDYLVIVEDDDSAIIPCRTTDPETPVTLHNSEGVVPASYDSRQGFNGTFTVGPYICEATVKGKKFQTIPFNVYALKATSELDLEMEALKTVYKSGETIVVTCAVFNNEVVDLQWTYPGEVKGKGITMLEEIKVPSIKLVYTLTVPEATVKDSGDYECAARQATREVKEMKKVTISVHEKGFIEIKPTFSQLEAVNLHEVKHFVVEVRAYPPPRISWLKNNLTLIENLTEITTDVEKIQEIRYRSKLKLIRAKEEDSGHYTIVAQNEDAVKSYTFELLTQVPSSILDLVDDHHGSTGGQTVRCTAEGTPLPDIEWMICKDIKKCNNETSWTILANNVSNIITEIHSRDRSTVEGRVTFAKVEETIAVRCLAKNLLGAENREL

B1: 24A1 antibody (mouse anti-human PDGFRα monoclonal antibody, clone number 24A1) (antibody, V domains shown)
VH: DVQLQESGPGLVKPSQSLSLTCTVTGYSITSDYAWNWIRQFPGNKLEWVGYISYSGSTSYNPSLKSRISITRDTSKNQFFLQLNSVTTEDTATYYCARRDYRYGYWYFDVWGAGTTVTVSS
VL: DIQMNQSPSSLSASLGDTITITCHASQNIHVWLTWYQQKPGNIPKLLIYKASNLHTGVPSRFSGSGSGTGFTLTISSLQPEDIATYYCQQGQSYPWTFGGGTKLEIKR
notes: no cleavage site is stated; also called monoclonal antibody 24A1; mouse anti-PDGFRα antibody (24A1 antibody)
For B1, in assay [1], the binding result is on record as “binds”.

B2: humanized anti-PDGFRα antibody (24A1) (antibody, human IgG1, kappa, V domains shown)
VH: DVQLQESGPGLVKPSQTLSLTCTVSGYSITSDYAWNWIRQPPGKGLEWVGYISYSGSTSYNPSLKSRISITRDTSKNQFSLKLSSVTAADTAVYYCARRDYRYGYWYFDVWGAGTTVTVSS
VL: B1 VL with L11V, L15V, T18R, I19V, N42K, I43A, G70D, I83F
notes: also called humanized 24A1 antibody; Hu PDGFRa (24A1)
With B2, the binding result in assay [2] is on record as “binds”.

B3: 21A1 antibody (mouse anti-human PDGFRα monoclonal antibody, clone number 21A1) (antibody, V domains shown)
VH: EVKLLESGGGLVQPGGSLKLSCAASGFDFSIFWMSWVRQAPGKGLEWIGEINPDSSTINYTPSLKDKFIISRDNAKNTLYLQMSKVRSEDTALYFCARQRFGPYWGQGTLVTVSA
VL: DIVMTQSHKFMSTSVGDRVSITCKASQDVSTAVAWYQQKPGQSPNLLIYSASYRYTGVPDRFTGSGSGTDFTFTISSVQAEDLAVYYCQQYYSTPYTFGGGTKLEIKR
notes: no cleavage site is stated; also called monoclonal antibody 21A1; hPDGFRα(21A1) MoAb
As to B3, the binding result in assay [1] was “binds”.
